The source of these data is paper PMC12170873, “The Spc105/Kre28 complex promotes mitotic error correction by outer kinetochore recruitment of Ipl1/Sli15” (The EMBO Journal, 2025).

Changes are numbered by the printed parent chain. In names and notes the source's numbering stands.

Conditions in all cases: both partners purified
Assay [1] has as its target T1, Spc105-Flag/Kre28 complex (S. cerevisiae, UniProt P53148 1-917; Q04431 1-385).
T1 construct: Spc105 (Knl1 homologue), S. cerevisiae; Kre28 (Zwint homologue), S. cerevisiae, wild type; the asterisk is not explained; A potential proteolysis product of full-length Spc105 is marked in the gels; also called Spc105/Kre28; K subcomplex; source: Sf9 insect cells (baculovirus pFAP10), purified on anti-Flag M2 beads; also as part of the co-expressed KMN network (KT1-5 and KT1-6); not shown: Flag, …
T1 sequence (looked up) 1: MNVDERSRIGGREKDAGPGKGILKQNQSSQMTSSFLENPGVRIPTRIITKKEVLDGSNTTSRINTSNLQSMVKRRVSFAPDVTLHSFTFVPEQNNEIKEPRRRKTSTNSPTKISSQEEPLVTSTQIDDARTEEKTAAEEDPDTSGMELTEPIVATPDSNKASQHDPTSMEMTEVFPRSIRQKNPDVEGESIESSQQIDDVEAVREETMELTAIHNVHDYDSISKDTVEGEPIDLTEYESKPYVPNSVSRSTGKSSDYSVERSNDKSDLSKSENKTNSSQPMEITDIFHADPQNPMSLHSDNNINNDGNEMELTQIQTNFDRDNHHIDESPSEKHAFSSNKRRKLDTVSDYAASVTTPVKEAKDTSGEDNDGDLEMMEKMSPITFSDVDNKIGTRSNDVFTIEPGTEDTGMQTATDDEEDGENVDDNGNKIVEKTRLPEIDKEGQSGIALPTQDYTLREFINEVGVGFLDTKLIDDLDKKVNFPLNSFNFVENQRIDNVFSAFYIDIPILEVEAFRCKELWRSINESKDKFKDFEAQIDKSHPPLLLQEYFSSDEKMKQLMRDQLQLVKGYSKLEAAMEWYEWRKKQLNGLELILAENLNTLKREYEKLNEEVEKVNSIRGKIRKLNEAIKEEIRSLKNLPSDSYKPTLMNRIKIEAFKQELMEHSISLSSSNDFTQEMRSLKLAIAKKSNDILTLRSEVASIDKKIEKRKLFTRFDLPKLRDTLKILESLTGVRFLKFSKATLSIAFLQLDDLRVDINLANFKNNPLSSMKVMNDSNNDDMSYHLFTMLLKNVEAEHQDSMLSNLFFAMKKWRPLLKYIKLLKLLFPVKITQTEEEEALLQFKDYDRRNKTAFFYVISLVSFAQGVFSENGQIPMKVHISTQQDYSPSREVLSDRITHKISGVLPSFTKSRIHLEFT
T1 sequence (looked up) 2: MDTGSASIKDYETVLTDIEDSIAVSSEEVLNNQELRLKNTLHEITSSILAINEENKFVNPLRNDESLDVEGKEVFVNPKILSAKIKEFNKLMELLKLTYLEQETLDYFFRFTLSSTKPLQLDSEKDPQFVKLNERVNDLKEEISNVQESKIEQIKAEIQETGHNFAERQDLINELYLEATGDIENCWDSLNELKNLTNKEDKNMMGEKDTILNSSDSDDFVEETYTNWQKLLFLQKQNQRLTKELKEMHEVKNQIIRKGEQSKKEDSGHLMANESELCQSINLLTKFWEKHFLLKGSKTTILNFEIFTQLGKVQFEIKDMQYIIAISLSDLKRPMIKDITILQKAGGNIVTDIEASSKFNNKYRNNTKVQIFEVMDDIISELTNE
Kind of assay: pull-down; KMN or its subcomplexes from Sf9 cells immobilised on anti-Flag M2 beads; 100 µl of 2 µM Ipl1/Sli15 added to ~20 µl beads; 4 °C, 6 h; 25 mM HEPES pH 7.4, 200 mM NaCl, 1 mM MgCl2, 2.5% glycerol, 0.01% Tween-20; eluted with 3xFlag peptide; Coomassie and anti-His blot; also done with prolonged incubation times (Fig. EV3A).

Assay [2] deals with T2, recombinant budding yeast KMN network (Spc105-Flag/Kre28^WT, Mtw1 complex, Ndc80 complex) (S. cerevisiae, UniProt P53148 1-917; Q04431 1-385; P39731 1-289; P40568 1-576; P47149 1-201; Q12143 …).
T2 construct: Spc105 (Knl1 homologue), S. cerevisiae; Kre28 (Zwint homologue), S. cerevisiae, wild type; Mtw1, S. cerevisiae; Dsn1, S. cerevisiae; Nnf1, S. cerevisiae; Nsl1, S. cerevisiae; Ndc80, S. cerevisiae; Nuf2, S. cerevisiae; Spc24, S. cerevisiae; Spc25, S. cerevisiae; also called wild-type Kre28 KMN network; not shown: Flag, C-terminal, kept; copies: + + + + + + + + +
Kind of assay: cross-linking; recombinant KMN and Ipl1/Sli15 mixed at equimolar amounts, BS3 (d0/d12), 35 °C, 30 min; cross-links identified by mass spectrometry (xQuest).

Assay [3] addresses T3, recombinant KMN network containing Kre28^ΔZwint (S. cerevisiae, UniProt P53148 1-917; Q04431 1-385; P39731 1-289; P40568 1-576; P47149 1-201; Q12143 …, ΔZwint (Zwint helix, residues 77–113)).
T3 construct: Spc105 (Knl1 homologue), S. cerevisiae; Mtw1, S. cerevisiae; Dsn1, S. cerevisiae; Nnf1, S. cerevisiae; Nsl1, S. cerevisiae; Ndc80, S. cerevisiae; Nuf2, S. cerevisiae; Spc24, S. cerevisiae; Spc25, S. cerevisiae; also called Kre28^ΔZwint KMN network; mutant KMN network; source: Sf9 insect cells, baculoviruses KT1-5 and KT1-6 mut, purified via Spc105-Flag on anti-Flag M2 beads; not shown: Flag, …
Kind of assay: pull-down; KMN or its subcomplexes from Sf9 cells immobilised on anti-Flag M2 beads; 100 µl of 2 µM Ipl1/Sli15 added to ~20 µl beads; 4 °C, 6 h; 25 mM HEPES pH 7.4, 200 mM NaCl, 1 mM MgCl2, 2.5% glycerol, 0.01% Tween-20; eluted with 3xFlag peptide; Coomassie and anti-His blot; also done with prolonged incubation times (Fig. EV3A).

B1: Ipl1/6xHis-Sli15 complex, dephosphorylated by λ phosphatase (complex, S. cerevisiae)
chain 1: MQRNSLVNIKLNANSPSKKTTTRPNTSRINKPWRISHSPQQRNPNSKIPSPVREKLNRLPVNNKKFLDMESSKIPSPIRKATSSKMIHENKKLPKFKSLSLDDFELGKKLGKGKFGKVYCVRHRSTGYICALKVMEKEEIIKYNLQKQFRREVEIQTSLNHPNLTKSYGYFHDEKRVYLLMEYLVNGEMYKLLRLHGPFNDILASDYIYQIANALDYMHKKNIIHRDIKPENILIGFNNVIKLTDFGWSIINPPENRRKTVCGTIDYLSPEMVESREYDHTIDAWALGVLAFELLTGAPPFEEEMKDTTYKRIAALDIKMPSNISQDAQDLILKLLKYDPKDRMRLGDVKMHPWILRNKPFWENKRL
chain 2: MDWAIKAARKKTQRKPGSTRSIIETLDDLNNLTTDAHSEINQRLYESSEWLRNNVYMNTLKYEDKKMEESLISPENTHNKMDVEFPKMKGEYELSNSQNDAAKDVTKTPRNGLHNDKSITPKSLRRKEVTEGMNRFSIHDTNKSPVEPLNSVKVDANESEKSSPWSPYKVEKVLRESSKTSESPINTKRFDNQTWAAKEEMENEPILQALKKAESVKVKPPPNSGIARSQRRSNMFVPLPNKDPLIIQHIPPTKSSGSIPKVRTVKESPIAFKKKSTINSPAIRAVENSDTAGSTKASSVFDRLSSIPTKSFENKISRGNVGHKYSSSSIDLTGSPMKKVSQKFKSINSTDTDMQEALRDIFSVKNKITKNNSPKGKNSRKSSIPRFDKTSLKLTTHKKLAIIAEQKKKSKHSSDVHKTGSRPHSISPTKISVDSSSPSKEVKNYYQSPVRGYLRPTKASISPNKNKNLTTSQTPHRLKIKEKTLRKLSPNIADISKPESRKSKNYRLTNLQLLPPAEAERDDLKKKFDKRLSGIMRSQQEHHRRKQEKQKRMSHLEQDLKKQTSFSNDYKDIRLKESLAPFDNHVRDTINKNTAFSTDNILATINTVDHREIIGNVTPKIASVNDSLPEINTDSEDEASVTLAAWAKSPYLQEQLIRQQDINPQTIFGPIPPLHTDEIFPNPRLNRLKPRQIVPKRS
modifications: dephosphorylated by λ phosphatase | dephosphorylated by λ phosphatase
notes: Ipl1 (Aurora B homologue), S. cerevisiae; Sli15 (INCENP homologue), S. cerevisiae; also called Lambda phosphatase-treated Ipl1/Sli15; source: E. coli BL21, purified (HisTrap, SEC), then treated with λ-Protein Phosphatase (NEB) at 30 °C for 30 min
Turning to B1, the binding result in assay [1] is “binds”.

B2: Ipl1/6xHis-Sli15 complex (wild type, untreated) (complex, S. cerevisiae)
chain 1: B1 chain 1
chain 2: B1 chain 2
notes: Ipl1 (Aurora B homologue), S. cerevisiae; Sli15 (INCENP homologue), S. cerevisiae; the full-length form was preferentially pulled down; also called Ipl1/Sli15; Ipl1/Sli15 complex; source: E. coli BL21, purified (HisTrap, SEC on Superdex 200)
Turning to B2, the binding result in assay [2], in assay [1] and in assay [3] was “binds” each time.

B3: Ipl1/6xHis-Sli15^4E complex (complex, S. cerevisiae)
chain 1: B1 chain 1
chain 2: B1 chain 2 with R231E, R232E, L239E, K242E
notes: Ipl1 (Aurora B homologue), S. cerevisiae; Sli15 (INCENP homologue), S. cerevisiae, 4E mutant (plasmid pAD146 in pETDuett); also called Sli15^4E mutant; Sli15 R231E R232E L239E K242E; source: E. coli BL21, purified (HisTrap, SEC on Superdex 200)
Take B3: the binding result in assay [1] is “binds”.
